Data on 14 molecules can be found in patent US20230279079A1 (CHANG GUNG MEMORIAL HOSPITAL LINKOU, published 2023).

Assay [1] deals with T1, SARS-CoV-2 spike S2 subunit (SARS-CoV-2, UniProt P0DTC2 686-1213).
T1 construct: domain: S2 subunit
Description: ELISA. On the technique in general: ELISA stands for enzyme-linked immunosorbent assay.

Assay [2] concerns the target T2, spike glycoprotein of wild type SARS-CoV-2 virus (SARS-CoV-2, UniProt P0DTC2 14-1273). Description: cell-based or functional assay.
Assay [3] addresses T2, spike glycoprotein of wild type …. Kind of assay: cell-based or functional assay. The source holds these as a separate data set.
The target of assay [4] is T3, SARS-CoV-2 spike S1 subunit (SARS-CoV-2, UniProt P0DTC2 16-685).
T3 construct: domain: S1 subunit
Description: ELISA.

Assay [5] deals with T4, SARS-CoV-2 spike receptor binding domain (RBD) (SARS-CoV-2, UniProt P0DTC2 319-541).
T4 construct: also called SARS-CoV-2 RBD
Description: ELISA.

Assay [6] deals with T5, SARS spike S1 subunit (severe acute respiratory syndrome …, UniProt P59594 14-667).
T5 construct: domain: S1 subunit
Description: ELISA.

In assay [7] the target is T6, MERS spike extracellular domain (Middle East respiratory syndrome …, UniProt K9N5Q8 18-1296).
T6 construct: extracellular domain
Kind of assay: ELISA.

Assay [8] deals with T7, Human coronavirus OC43 spike extracellular domain (human coronavirus OC43, UniProt P36334 14-1297).
T7 construct: extracellular domain
Description: ELISA.

T6 sequence (K9N5Q8 18-1296): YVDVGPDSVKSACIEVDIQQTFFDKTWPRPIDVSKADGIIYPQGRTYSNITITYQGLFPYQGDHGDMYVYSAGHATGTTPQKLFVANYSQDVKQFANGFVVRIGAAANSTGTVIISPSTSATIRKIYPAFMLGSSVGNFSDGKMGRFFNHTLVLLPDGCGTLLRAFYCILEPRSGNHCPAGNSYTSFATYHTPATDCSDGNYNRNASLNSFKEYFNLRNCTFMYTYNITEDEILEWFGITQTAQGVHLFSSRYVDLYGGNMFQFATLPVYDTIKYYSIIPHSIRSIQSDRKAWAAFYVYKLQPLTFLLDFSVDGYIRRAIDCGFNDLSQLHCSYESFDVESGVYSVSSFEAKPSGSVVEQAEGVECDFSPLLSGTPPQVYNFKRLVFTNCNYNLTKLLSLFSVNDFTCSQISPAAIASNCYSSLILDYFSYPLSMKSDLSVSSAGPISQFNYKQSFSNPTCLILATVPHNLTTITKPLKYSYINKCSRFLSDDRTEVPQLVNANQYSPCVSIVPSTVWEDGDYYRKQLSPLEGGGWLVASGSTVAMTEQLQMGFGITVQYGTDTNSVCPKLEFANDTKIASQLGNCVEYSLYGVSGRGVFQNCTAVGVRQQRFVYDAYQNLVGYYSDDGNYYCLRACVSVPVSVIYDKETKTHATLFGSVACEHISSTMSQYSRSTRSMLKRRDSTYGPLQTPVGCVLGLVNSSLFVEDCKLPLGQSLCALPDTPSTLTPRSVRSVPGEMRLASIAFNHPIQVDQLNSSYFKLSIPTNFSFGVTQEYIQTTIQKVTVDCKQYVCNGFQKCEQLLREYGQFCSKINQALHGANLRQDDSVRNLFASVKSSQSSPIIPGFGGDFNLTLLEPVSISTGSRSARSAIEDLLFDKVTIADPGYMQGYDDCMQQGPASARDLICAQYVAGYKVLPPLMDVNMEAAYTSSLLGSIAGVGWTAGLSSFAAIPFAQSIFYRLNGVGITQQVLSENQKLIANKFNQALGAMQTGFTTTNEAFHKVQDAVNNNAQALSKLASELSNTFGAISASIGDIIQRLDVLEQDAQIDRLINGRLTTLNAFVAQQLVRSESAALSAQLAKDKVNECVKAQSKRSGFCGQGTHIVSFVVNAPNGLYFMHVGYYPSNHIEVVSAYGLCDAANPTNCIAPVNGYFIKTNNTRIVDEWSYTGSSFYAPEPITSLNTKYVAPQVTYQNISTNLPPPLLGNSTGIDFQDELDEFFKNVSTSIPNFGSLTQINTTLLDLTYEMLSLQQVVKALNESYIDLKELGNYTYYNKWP
T7 sequence (P36334 14-1297): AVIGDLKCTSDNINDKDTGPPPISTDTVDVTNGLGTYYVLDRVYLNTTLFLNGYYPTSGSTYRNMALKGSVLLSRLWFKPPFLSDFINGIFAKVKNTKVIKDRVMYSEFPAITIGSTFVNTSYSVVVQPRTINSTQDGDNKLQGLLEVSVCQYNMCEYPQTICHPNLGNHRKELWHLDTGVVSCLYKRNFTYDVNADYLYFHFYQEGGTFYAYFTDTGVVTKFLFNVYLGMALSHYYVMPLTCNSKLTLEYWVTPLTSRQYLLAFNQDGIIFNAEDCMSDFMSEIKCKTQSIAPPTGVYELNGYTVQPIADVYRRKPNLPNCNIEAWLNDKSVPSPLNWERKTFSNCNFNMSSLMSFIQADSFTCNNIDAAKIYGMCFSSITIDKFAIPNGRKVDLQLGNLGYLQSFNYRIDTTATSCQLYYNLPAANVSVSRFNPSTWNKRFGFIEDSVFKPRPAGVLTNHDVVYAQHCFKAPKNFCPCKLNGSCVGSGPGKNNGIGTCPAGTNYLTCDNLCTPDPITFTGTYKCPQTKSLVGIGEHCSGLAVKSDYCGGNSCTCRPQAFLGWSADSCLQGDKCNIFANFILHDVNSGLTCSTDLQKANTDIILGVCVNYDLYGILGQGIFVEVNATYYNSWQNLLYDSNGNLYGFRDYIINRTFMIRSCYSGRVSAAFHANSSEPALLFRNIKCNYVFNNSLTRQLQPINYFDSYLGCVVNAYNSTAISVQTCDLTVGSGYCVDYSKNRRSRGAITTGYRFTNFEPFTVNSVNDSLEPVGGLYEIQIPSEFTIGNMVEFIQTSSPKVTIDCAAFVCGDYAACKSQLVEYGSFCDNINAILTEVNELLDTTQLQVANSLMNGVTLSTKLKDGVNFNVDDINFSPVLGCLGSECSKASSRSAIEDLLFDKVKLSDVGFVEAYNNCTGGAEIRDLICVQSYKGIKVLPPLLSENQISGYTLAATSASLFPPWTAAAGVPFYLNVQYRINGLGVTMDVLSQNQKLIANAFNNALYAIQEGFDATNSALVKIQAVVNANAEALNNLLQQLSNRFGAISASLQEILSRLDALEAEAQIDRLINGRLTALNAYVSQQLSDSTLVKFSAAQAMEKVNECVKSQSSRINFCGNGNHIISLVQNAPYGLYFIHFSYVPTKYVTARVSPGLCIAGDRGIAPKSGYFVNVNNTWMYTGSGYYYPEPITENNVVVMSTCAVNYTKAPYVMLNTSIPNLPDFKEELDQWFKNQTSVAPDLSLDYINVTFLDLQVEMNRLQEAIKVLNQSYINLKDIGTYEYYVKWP

B1: FI 3A (antibody, V domains shown)
VH: EVQLLESGGGLIQPGGSLRLSCAASGFTVSSNYMSWVRQAPGKGLEWVSVIYSGGSTYYADSVKGRFTISRDNSKNTLYLQMNSLRAEDTAVYYCARDHVRPGMNIWGQGTMVTVSS
VL: not shown
notes: also called FI 03A
As for B1, in assay [1], the binding result is given as “no binding”. Moreover, in assay [2], the “fold reduction of virus” value was about 10100 fold. In assay [3], the “Neutralization by FMNT EC50” value came out at 0.51 nM and the “Neutralization by PRNT EC50” value turned out to be 8.67 nM.

B2: FM 1A (antibody, V domains shown)
VH: EVQLLESGGGVVQPGRSLRLSCAASGFTFSSYGMHWVRQAPGKGLEWVAVIWYDGSNKYYADSVKGRFTISRDNSKNTLYLQMNSLRAEDTAVYYCAREGAVGATRGFDYWGQGTLVTVSS
VL: SYELTQPPSVSVAPGQTARITCGGNNIGSKSVHWYQQKPGQAPVLVVYDDSDRPSGIPERFSGSNSGNTATLTISRVEAGDEADYYCQVWDSSSDQGVFGGGTKLTVL
Turning to B2, the binding result in assay [4], in assay [5], in assay [6], in assay [7] and in assay [8] was “no binding” each time. The “Neutralization by PRNT EC50” value in assay [3] worked out at 133 nM.

B3: FD 11A (antibody, V domains shown)
VH: EVQLVESGGGVVQPGRSLRLSCAASGFTFSSYGMHWVRQAPGKGLEWVAVIWYDGSNKYYADSVKGRFTISRDNSKNTLYLQMNSLRAEDTAVYYCAKGPDILTGYYNYYYYGMDVWGQGTMVTVSS
VL: QSVLTQPPSVSGAPGQRVTISCTGSSSNIGAGYDVHWYQQLPGTAPKLLIYGNSNRPSGVPDRFSGSKSGTSASLAITGLQAEDEADYYCQSYDSSLSGFYVVFGGGTKLTVL
Regarding B3, the binding result in assay [1] was “no binding”. In assay [2], the “Ct value of culture supernatant, after 5 days of incubation (virus control 13.0)” value (from here on “Ct value of culture supernatant”) is 23 Ct and the “fold reduction of virus” value is about 1024 fold. Moreover, in assay [3], the “Neutralization by FMNT EC50” value turned out to be 3.68 nM and the “Neutralization by PRNT EC50” value worked out at 0.05 nM.

B4: FD 7C (antibody, V domains shown)
VH: QLQLQESGPGLVKPSETLSLTCTVSGGSISSYYWSWIRQPPGKGLEWIGYIYYSGSTNYNPSLKSRVTISVDTSKNQFSLKLSSVTAADTAVYYCARDYRFGELFGRFAWFDPWGQGTLVTVSS
VL: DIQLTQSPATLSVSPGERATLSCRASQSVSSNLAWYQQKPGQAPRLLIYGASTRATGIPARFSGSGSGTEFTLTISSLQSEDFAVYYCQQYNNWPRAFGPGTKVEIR
In the case of B4, the binding result in assay [5], in assay [1], in assay [6], in assay [7] and in assay [8] was “no binding” in each case. Besides, in assay [3], the “Neutralization by FMNT EC50” value was 35.6 nM.

B5: FD 10A (antibody, V domains shown)
VH: EVQLVESGGGLVQPGGSLRLSCAASGFTFSSYWMHWVRQAPGKGLVWVSRINSDGSSTSYADSVKGRFTISRDNAKNTLYLQMNSLRAEDTAVYYCANMAFDIWGQGTMVTVSS
VL: not shown
On to B5, for which the binding result in assay [4] is reported as “no binding”; in assay [5], “no binding”; in assay [6] it was “binds”; in assay [7], “binds”; in assay [8], “binds”. Besides, the “Neutralization by PRNT EC50” value in assay [3] stood at 111 nM.

B6: FG 7A (antibody, V domains shown)
VH: EVQLVESGGGVVQPGRSLRLSCAASGFTFSSYAMHWVRQAPGKGLEWVAVISYDGSNKYYADSVKGRFTISRDNSKNTLYLQMNSLRAEDTAVYYCARSHSGSYRASLDYWGQGTTVTVSS
VL: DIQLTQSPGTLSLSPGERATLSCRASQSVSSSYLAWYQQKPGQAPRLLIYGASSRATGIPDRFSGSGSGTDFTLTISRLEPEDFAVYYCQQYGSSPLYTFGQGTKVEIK
Regarding B6, the binding result in assay [4], in assay [5], in assay [6], in assay [7] and in assay [8] was “no binding” in each case. Moreover, the “Neutralization by PRNT EC50” value in assay [3] amounted to 133 nM.

B7: FB 9D (antibody, V domains shown)
VH: QVQLVESGAEVKKPGESLKISCQGSGYRFNSYWIAWVRQMPGKGLEWMGSIFPTDSDVRYNPSFQGQVTISADKSISFAYLQWSSLKASDTAIYYCARHWASMVRGVIRASHYYGMDVWGQGTTVTVSS
VL: QPVLTQPPSASGSPGQSVTISCSGASSDIGKYNYVSWYQQLPGKAPKLLIYEVTKRPSGVPDRFSGSKSGNTASLTVSGLQADDEADYYCSSYAFGGSDTRVFGGGTKLTVL
Regarding B7, the binding result in assay [4] is on record as “no binding”; in assay [5], “no binding”; in assay [6], “no binding”; in assay [7], “binds”.

B8: FB 1E (antibody, V domains shown)
VH: EVQLVESGAEVKKPGESLKISCQGSGYRFNSYWIAWVRQMPGKGLEWMGSIFPTDSDIRYNPSFQGQVTISADKSISIAYLQWSSLKASDTAIYYCARHWASMVRGVIRASHYYGMDVWGQGTTVTVSS
VL: QSVLTQPPSASGSPGQSVTISCSGASSDIGDYNYVSWYQQLPGKAPKLLIYEVTKRPSGVPDRFSGSKSGNTASLTVSGLQADDEADYYCSSYAFGGSDIRVFGGGTKLAVL
Turning to B8, the binding result in assay [4] is “no binding”; in assay [5], “no binding”; in assay [6], “no binding”; in assay [7], “binds”. In addition, the “Neutralization by PRNT EC50” value in assay [3] is 36 nM.

B9: EY 6A (antibody, V domains shown)
VH: EVQLVESGGGVVQPGRSLRLSCAASAFTFSSYDMHWVRQAPGKGLEWVAVISYDGSNKYYADSVKGRFTISRDNSKNTLYLQMNSLRAEDTAVYYCAKDGGKLWVYYFDYWGQGTTVTVSS
VL: not shown
As for B9, the binding result in assay [1] is reported as “no binding”. In addition, the “Ct value of culture supernatant” value in assay [2] stood at 22.7 Ct. In addition, in assay [3], the “Neutralization by FMNT EC50” value came out at 22.5 nM and the “Neutralization by PRNT EC50” value was 133 nM.

B10: FN 2C (antibody, V domains shown)
VH: EVQLLESGGGVVQPGRSLRLSCAASGFNFNNYGMHWVRQAPGKGLEWVATISYEGSKKFYVDSVKGRFTISKDNSKNTLYLQMNSLRVDDTAFYYCAKRREIFWLGEPPLSDAFDFWGQGTMVTVSS
VL: QSVLTQPPSVSGAPGQRVTISCTGSGSNIGAGYDVHWYQFLPGTAPQLLIYGNNNRPSGVPDRFSGSKSGTSASLAITGLQAEDEADYYCQSYDSSLSGSVFGGGTKLTVL
Turning to B10, the binding result in assay [4], in assay [5], in assay [6] and in assay [7] was “no binding” each time.

B11: FJ 4E (antibody, V domains shown)
VH: QVQLVESGPGLVKPSETLSLTCSVSGGSISSGTYYWSWIRQQPGKGLEWIGYIYNTGRPYYNPFLKSRITISVDSSKNQFSLKLTSVTAADTAVYYCARDEYDSSDSGIQGHWFDPWGQGTLVTVSS
VL: AIRMTQSPSSLSASVGDRVTITCRTSQNINSFLNWYQQKPGKGPNLLIYGAFTLQSGVPSRFSGSGSGTDFTLTISSLQPEDFATYFCQQSYSTPWTFGQGTKVEIK
In the case of B11, the binding result in assay [4] is recorded as “no binding”; in assay [5], “no binding”; in assay [6] it was “binds”; in assay [7], “binds”. The “Neutralization by PRNT EC50” value in assay [3] was 75.3 nM.

B12: FD 5D (antibody, V domains shown)
VH: EVQLVESGGGLVQPGGSLRLSCAASGFTFSSYSMNWVRQAPGKGLEWVSYISSSSSTIYYADPVKGRFTISRDNAKNSLYLQMNSLRAEDTAVYYCASPGGITAAGTSVLFGYYGMDVWGQGTMVTVSS
VL: not shown
As to B12, the binding result in assay [1], in assay [6], in assay [7] and in assay [8] was “no binding” in each case. Also, the “Ct value of culture supernatant” value in assay [2] worked out at 18.8 Ct. Also, the “fold reduction of virus” value in assay [2] is about 56 fold. Moreover, in assay [3], the “Neutralization by PRNT EC50” value was 133 nM.

B13: EW 9C (antibody, V domains shown)
VH: EVQLVESGGGVVQPGASLRLSCVASGFTFNNFGFHWVRQAPGKGLEWLAVISYEGSKTYYAESLKGRFTISRDTSKNTVYLQMNSLRAEDTAVYYCARATSIFWFGEGRNWFDPWGQGTMVTVSS
VL: EIVLTQSPGTVSLSAGERATLSCRASQNVGTDLAWYVQRPGQAPRLLIYDTSNKATGIPARFSGRGSGTDFTLTIDSLEPEDFAVYYCQQRSNWPLTFGGGTKVEIR
As to B13, the binding result in assay [4] is reported as “no binding”; in assay [5] it was “no binding”; in assay [6], “no binding”; in assay [7], “binds”; in assay [8], “binds”. In assay [2], the “Ct value of culture supernatant” value came to 22.7 Ct. The “fold reduction of virus” value in assay [2] was about 832 fold. The “Neutralization by PRNT EC50” value in assay [3] was found to be 133 nM.

B14: EW 9C-1 (antibody, V domains shown)
VH: EVQLVESGGGVVQPGASLRLSCVASGFTFNNFGFHWVRQAPGKGLEWLAVISYEGSKTYYAESLKGRFTISRDTSKNTVYLQMNSLRAEDTAVYYCARATSIFWFGEGRNWFDPWGQGALVTVSS
VL: EIVMTQSPGTVSLSAGERATLSCRASQNVGTDLAWYVQRPGQAPRLLIYDTSNRATGIPARFSGRGSGTDFTLTIDSLEPEDFAVYYCQQRSNWPLTFGGGTKVEIK
In the case of B14, the binding result in assay [4] was “no binding”; in assay [5], “no binding”; in assay [6], “no binding”; in assay [7], “binds”; in assay [8], “binds”. For the same molecule, in assay [3], the “Neutralization by PRNT EC50” value was 133 nM.
